Consider three molecules from patent publication CN111018982A (DONGGUAN PENGZHI BIOTECHNOLOGY CO LTD, dated 2020).

Where two headings read alike, the source gives them in different places.

Assay [1] has as its target T1, cTnI质控品重组抗原 (human, UniProt P19429 1-210, limits assumed).
T1 construct: 人cTnI蛋白); also called cTnI质控品重组蛋白(公司自产重组抗原); 心肌肌钙蛋白I
In words: BLI, antibody captured on AMC sensor, cTnI recombinant protein in solution. For orientation: BLI is a label-free optical method that tracks binding on a fibre tip over time.

In assay [2] the target is T1, cTnI质控品重组抗原. The description is as above. This is another data set of the same source.

T1 sequence (P19429 whole entry): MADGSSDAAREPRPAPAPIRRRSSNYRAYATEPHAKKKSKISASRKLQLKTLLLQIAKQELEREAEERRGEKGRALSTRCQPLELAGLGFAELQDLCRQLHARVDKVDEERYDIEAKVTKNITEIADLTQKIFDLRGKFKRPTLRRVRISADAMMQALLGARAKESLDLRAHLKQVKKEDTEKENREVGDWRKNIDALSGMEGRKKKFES

B1: Anti-cTnI 3C7 重组抗体 (WT) (antibody, V domains shown)
VH: EVKLDETGGGLVQPGRPMKLSCIASGATFSGYWMQWVRQSPEKGLEWVAQLRNGPYDFDTFYSDSVKDRFTISRDDSKSVYLQMNNLRAEDMGIYYCTPHFVHWGQGTLVTVSA
VL: DIVMTQSPSSLSVSEGEKVTLRCKSSNSLFNSGNQQNYLAWYQQKPGQPPKLLIYGPSTREFGVPDRFTGSGSGTDFTLISNVQEDLAVYYCQTDRTSAYTFGGGTKLEIK
In the case of B1, in assay [1], the Kd was determined as 33.5 nM, the koff is 0.00018 s⁻¹ and the kon was determined as 5360 M⁻¹ s⁻¹. For the same molecule, in assay [2], the Kd came out at 33.5 nM, the koff amounted to 0.00018 s⁻¹ and the kon worked out at 5360 M⁻¹ s⁻¹.

B2: WT 1-22 (antibody, V domains shown)
VH: EVQLQQSGPELVKPGASVKMSCKASGYSFTLYVLHWVKQKPGQGLEWIGYIYPYIDGTRYNEKFKGKATLTVDKSSSTAFMELSSLTSEDSAVYYCARTGYGNYGLAWLAYWGQGTLVTVSA
VL: QAVVIQESALTTSPGETVTLTCRSSSGAVTTSQYANWVQEKPDHLFTGLIGGSNNRVPGVPARFSGSLIGDKAALTITGAQTEDEAIYFCAIVYSNNWVFGGGTKLTVLG
Consider B2, for which, in assay [1], the Kd is 47.8 nM, the koff was 0.000308 s⁻¹ and the kon is 6450 M⁻¹ s⁻¹.

B3: WT 1-5 (antibody, V domains shown)
VH: QVQLQQSGTELAKPGASVKFSCKASDYTFSSYWMYWIKQRPGQGLEWIGYLNPSTGHTEYNQKFKDKATLTADKSSSTAYMQLNSLTSEDSAVYYCARKYWGPFAMDYWGQGTSVTVSS
VL: EIFLTQSPAIMSASPGEKVTMTCSASSSVSYAHWYQQKSGTSPKRWIYDSSKIASGIPVRFSGSGSGTSYSLTISSMEAEDAATYYCQNWSTNPYTFGGGTKLEIKR
As for B3, in assay [1], the Kd turned out to be 80.6 nM, the koff was determined as 0.000533 s⁻¹ and the kon stood at 6610 M⁻¹ s⁻¹.

As usually defined, the Kd is a measure of binding affinity in units of concentration. For orientation: koff means a measure of how fast the partners let go of each other. What is called kon is the rate constant with which the complex forms.
